We go through 4 substances from publication PMC4192513, “A Novel Protein-Protein Interaction in the RES (REtention and Splicing) Complex” (The Journal of Biological Chemistry, 2014).

Ends that are not written are not given here.

The nature of series [1]: Precipitation / solubility of the sample on addition of Bud13p peptide to 15N-labeled Snu17p. The format is physicochemical. The conditions noted are these: addition to recombinant 15N-labeled Snu17p, NMR titration. As for the experimental part: (§1) Recombinant proteins were purified by sonicating the harvested cell pellet in 25 ml of lysis buffer (20 mM Tris, pH 7.5, 300 mM NaCl, 10 mM imidazole, 1 mM DTT, and 0.02% NaN3), also including protease inhibitors, RNase, lysozyme, and 0.2% IGEPAL. After high speed centrifugation (20,000 × g, 30 min) and filtering, each supernatant was applied to Ni-NTA-agarose resin (Qiagen). Several rounds of washing were performed with: lysis buffer including 0.2% IGEPAL, lysis buffer, lysis buffer with high salt concentration (1 M NaCl), and lysis buffer with high imidazole concentration (30 mM imidazole). Finally, each protein was eluted by applying 10 ml of a buffer containing 20 mM Tris, pH 7.5, 300 mM NaCl, 330 mM imidazole, 1 mM DTT, and 0.02% NaN3. Tobacco etch virus protease was added to each sample and incubated overnight at 4 °C. To remove the cleaved GST tag each sample was passed over a second Ni-NTA column. A second purification step included size exclusion chromatography (HiLoad, Superdex 75 16/60, GE Healthcare). In this step, proteins were buffer exchanged into the NMR buffer (20 mM sodium phosphate, pH 6.3, 25 mM NaCl, and 2 mM fresh DTT or Tris(2-carboxyethyl)phosphine, 0.02% NaN3). Stoichiometric hybrid-labeled samples were prepared by mixing excess Bud13p with Snu17p and performing another step of size exclusion chromatography (HiLoad, Superdex 75 16/60, GE Healthcare). […]

The target in series [2] is T1, Snu17p (residues 1–113) (Saccharomyces cerevisiae, UniProt P40565).
T1 construct: The concentration of Snu17p (residues 1–113) in the cell (1440 μl) varied between 30 and 70 μM; His6 (N, cleaved yes); GST (N, cleaved yes); made in house; host or cells: Escherichia coli BL21(DE3) pLysS
T1 sequence (P40565 1-113): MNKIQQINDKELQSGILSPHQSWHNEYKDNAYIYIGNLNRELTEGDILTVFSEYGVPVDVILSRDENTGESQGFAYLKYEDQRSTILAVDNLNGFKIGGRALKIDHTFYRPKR
Put plainly: NMR titration (1H,15N correlation spectra) of 15N-labeled Snu17p (residues 1–113) with Bud13p peptides. The format is binding. To be noted: 298 K, 20 mM sodium phosphate, pH 6.3, 25 mM NaCl. The procedure: Recombinant proteins were purified by sonicating the harvested cell pellet in 25 ml of lysis buffer (20 mM Tris, pH 7.5, 300 mM NaCl, 10 mM imidazole, 1 mM DTT, and 0.02% NaN3), also including protease inhibitors, RNase, lysozyme, and 0.2% IGEPAL. After high speed centrifugation (20,000 × g, 30 min) and filtering, each supernatant was applied to Ni-NTA-agarose resin (Qiagen). Several rounds of washing were performed with: lysis buffer including 0.2% IGEPAL, lysis buffer, lysis buffer with high salt concentration (1 M NaCl), and lysis buffer with high imidazole concentration (30 mM imidazole). Finally, each protein was eluted by applying 10 ml of a buffer containing 20 mM Tris, pH 7.5, 300 mM NaCl, 330 mM imidazole, 1 mM DTT, and 0.02% NaN3. Tobacco etch virus protease was added to each sample and incubated overnight at 4 °C. To remove the cleaved GST tag each sample was passed over a second Ni-NTA column. A second purification step included size exclusion chromatography (HiLoad, Superdex 75 16/60, GE Healthcare). In this step, proteins were buffer exchanged into the NMR buffer (20 mM sodium phosphate, pH 6.3, 25 mM NaCl, and 2 mM fresh DTT or Tris(2-carboxyethyl)phosphine, 0.02% NaN3). Stoichiometric hybrid-labeled samples were prepared by mixing excess Bud13p with Snu17p and performing another step of size exclusion chromatography (HiLoad, Superdex 75 16/60, GE Healthcare). Two shorter peptides of Bud13p (residues 221–242 or residues 225–238) were purchased from Peptide Specialty Laboratories (Heidelberg, Germany), and extensively dialyzed before binding experiments.
NMR spectra were recorded at 298 K on an AVIII800 Bruker NMR spectrometer equipped with a cryogenic triple resonance gradient probe. Spectra were processed using NMRPipe ([21]). Protein backbone and side chain assignments were obtained from standard triple resonance experiments ([22]). NOE distance restraints were obtained from ^15N- and ^13C-edited three-dimensional NOESY spectra (mixing time 70 ms) where only Snu17p or Bud13p proteins were labeled. Intermolecular NOE restraints were derived from three-dimensional ^15N,^13C-filtered, ^13C-edited NOESY spectra (mixing time 70 ms) ([22], [23]). Stereospecific assignments of pro-chiral methyl groups of valine and leucine were obtained using 10% ^13C-labeled protein samples ([24]).
To characterize the unexpected molecular features of the Snu17p-Bud13p interaction we proceeded with biophysical and structural characterization of the binary complex (Fig. 3). […] We tested binding to a series of Bud13p fragments to identify the minimum binding region in Bud13p (Fig. 3, a and b). NMR titrations confirmed binding to a Bud13p peptide encompassing residues 201–266 as has been shown previously ([20]).

In series [3] the target is T1, Snu17p (residues 1–113). Put plainly: Isothermal titration calorimetry (ITC) of Bud13p ligands binding to Snu17p. The conditions noted are these: 25 °C, NMR buffer pH 6.3. The procedure:
as §1

In series [4] the test system is Snu17p. Put plainly: NMR of 15N-labeled Bud13p in complex with unlabeled Snu17p. In kind it is binding, Saccharomyces cerevisiae. The conditions noted are these: 15N-labeled Bud13p (residues 222–256), 298 K. The procedure: as §1, with “NaN3).” for “NaN3). Stoichiometric hybrid-labeled samples were prepared by mixing excess Bud13p with Snu17p and performing another step of size exclusion chromatography (HiLoad, Superdex 75 16/60, GE Healthcare).”
(§2) NMR spectra were recorded at 298 K on an AVIII800 Bruker NMR spectrometer equipped with a cryogenic triple resonance gradient probe. […]

In series [5] the test system is Snu17p (residues 25–113). Kind of series: NMR chemical shift perturbation with shorter Snu17p protein (residues 25–113). The format is binding, Saccharomyces cerevisiae. The conditions noted are these: shorter Snu17p protein (residues 25–113) compared with residues 1–113; data not shown. As for the experimental part: as §1, with “NaN3).” for “NaN3). Stoichiometric hybrid-labeled samples were prepared by mixing excess Bud13p with Snu17p and performing another step of size exclusion chromatography (HiLoad, Superdex 75 16/60, GE Healthcare).”
as §2

Consider “Bud13p^201-266: Bud13p residues 201–266, recombinant from E. coli, GST tag cleaved”, for which the “precipitation / solubility of the sample” value in series [1] is reported as “led to precipitation of the sample”. Also, the “NMR chemical shift perturbations (CSPs) of Snu17p” value (shortened to “NMR chemical shift perturbations”) in series [2] is “extensive chemical shift perturbations (CSPs)”.
Take “Bud13p^225-238: Bud13p residues 225–238, purchased from Peptide Specialty Laboratories (Heidelberg) (AIMPGSRWDGVHRS)”: the “NMR chemical shift perturbations” value in series [2] was “hardly induced any NMR spectral changes for Snu17p”. The “binding affinity (in words)” value in series [3] is “binds very weakly”.
As for “Bud13p^222-256: Bud13p residues 222–256, recombinant from E. coli; optimal Bud13p peptide, minimum interacting region”, in series [1], the “precipitation / solubility of the sample” value is “proteins remained in solution”. Besides, the “chemical shift changes in Bud13p spectra on binding to Snu17p” value in series [4] is on record as “extensive chemical shift changes in Bud13p spectra”. The “NMR chemical shift perturbations” value in series [2] was “large chemical shift changes, induced by Bud13p binding, map on the two helices plus adjacent loop regions of the Snu17p RRM-fold”. The “NMR CSPs induced by Bud13p binding” value in series [5] is “Virtually identical NMR CSPs”.
As to ENRFAIMPGSRWDGVHRSNGFE [Bud13p^221-242], the “NMR chemical shift perturbations” value in series [2] was “affected the same Snu17p residues but to a lesser extent compared with the longer ones”.
